Results: US20070100561A1 (published 2007)

Target: T1, DPP-IV as immobilized on the CM5 surface plasmon resonance sensor (Biacore) (human, UniProt P27487 31-766)
T1 construct: Same recombinant sDPP-IV polypeptide as m1; Amine-coupled, about 10 000 RU; in one flow cell cross-linked with carbodiimide/N-hydroxysuccinimide; also called sDPP-IV
Assay: SPR (Biacore), DPP-IV immobilized on CM5 sensor
Procedure: The organic adlayer on this sensor type consists of carboxymethylated dextran (MW≈100 kDA). […] The surfaces of two flow cells were modified with protein. […] Hepes buffer (0.01 M Hepes, pH 7.4, 0.15 M NaCl, 3 mM EDTA, 0.005% polysorbate 20 (v/v)) was used as the running buffer. […] The final inhibitor solution contained less than 0.1% DMSO. Binding experiments were carried out by contacting the immobilized protein surfaces with inhibitor solutions of varying concentrations at a flow rate of 10 μl/min or 30 μl/min. After each contact with inhibitor, the protein surfaces were regenerated by extensively washing with running buffer.

T1 sequence (P27487 31-766 limits assumed): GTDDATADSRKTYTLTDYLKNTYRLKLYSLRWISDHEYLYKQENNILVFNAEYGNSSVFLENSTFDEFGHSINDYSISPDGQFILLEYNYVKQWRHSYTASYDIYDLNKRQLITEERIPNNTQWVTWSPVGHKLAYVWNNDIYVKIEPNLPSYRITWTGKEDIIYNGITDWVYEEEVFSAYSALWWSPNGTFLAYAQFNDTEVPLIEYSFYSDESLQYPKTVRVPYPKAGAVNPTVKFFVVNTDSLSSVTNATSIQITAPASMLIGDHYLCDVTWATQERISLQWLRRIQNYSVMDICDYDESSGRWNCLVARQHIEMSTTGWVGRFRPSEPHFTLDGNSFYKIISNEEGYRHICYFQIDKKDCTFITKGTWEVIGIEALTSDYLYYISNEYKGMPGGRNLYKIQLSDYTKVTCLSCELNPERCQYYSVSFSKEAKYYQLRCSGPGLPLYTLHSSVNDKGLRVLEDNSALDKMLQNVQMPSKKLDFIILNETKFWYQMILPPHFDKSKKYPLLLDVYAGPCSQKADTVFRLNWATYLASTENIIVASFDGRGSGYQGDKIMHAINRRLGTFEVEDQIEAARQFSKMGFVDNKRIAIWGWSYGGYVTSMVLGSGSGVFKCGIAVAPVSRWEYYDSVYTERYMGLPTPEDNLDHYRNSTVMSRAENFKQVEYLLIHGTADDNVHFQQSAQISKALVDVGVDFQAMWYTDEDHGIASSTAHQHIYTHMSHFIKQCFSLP

B1: adenosine deaminase (ADA; Sigma Type IV, from calf intestinal mucosa) (enzyme, bovine, UniProt P56658 2-357, looked up)
chain: AQTPAFNKPKVELHVHLDGAIKPETILYYGRKRGIALPADTPEELQNIIGMDKPLSLPEFLAKFDYYMPAIAGCREAVKRIAYEFVEMKAKDGVVYVEVRYSPHLLANSKVEPIPWNQAEGDLTPDEVVSLVNQGLQEGERDFGVKVRSILCCMRHQPSWSSEVVELCKKYREQTVVAIDLAGDETIEGSSLFPGHVKAYAEAVKSGVHRTVHAGEVGSANVVKEAVDTLKTERLGHGYHTLEDATLYNRLRQENMHFEVCPWSSYLTGAWKPDTEHPVVRFKNDQVNYSLNTDDPLIFKSTLDTDYQMTKNEMGFTEEEFKRLNINAAKSSFLPEDEKKELLDLLYKAYGMPSPA
notes: Bought protein purified from tissue; also called ADA from bovine
Kd: 3.15 nM
koff: 8.75e-05 s⁻¹
kon: 29800 M⁻¹ s⁻¹
